Laboratory results taken from patent US20070254316A1 (Johns Hopkins, published 2007).
Ends that are not written are not given here.

What was measured:
[1] = target: T1, xPSM (extracellular portion of human PSMA, Tag-xPSM digested with enterokinase, no affinity tags) (human, UniProt Q04609 44-750); experiment: phage ELISA on xPSM
T1 construct: extracellular domain; also called purified xPSM; soluble xPSM protein

PSMA on LNCaP cells = target: T2, PSMA on LNCaP cells (human, UniProt Q04609 1-750); experiment: phage binding to LNCaP cells, 10^8 PFU, BRASIL partitioning and titer
T2 construct: whole, on cells; Target is whole LNCaP cells; also called PSMA expressing LNCaP cells
Experimental: FIG. 6 depicts the binding of individual phage clones to PSMA expressing LNCaP cells. 1.3×10⁵ harvested LNCaP cells were incubated with 10⁸ PFU of each individual phage for 20 minutes. Cell-bound phage were isolated by BRASIL partitioning and titered. Phage clones contained peptide sequences as follows: R5-C6: SEQ ID NO:2; R4-C9: SEQ ID NO:5; R5-XC1: SEQ ID NO:1; R3-A4: SEQ ID NO:95.
(§1) Cell monolayers were washed several times in PBS, and finally incubated five minutes in PBS at 37° C. Cells were knocked free, pelleted, and suspended in RPMI 1640+1% FBS at a concentration of 10⁶ cells per milliliter. 10⁸ PFU from each clone were incubated with 100 μl of cells at 37° C. for 20 minutes while rotating. For competitive inhibition, purified xPSM or BSA were added to the cells along with phage, and a larger concentration of 10¹⁰ PFU was applied. The cells were then centrifuged through 200 μl of 9:1 dibutyl phthalate:cyclohexane, previously described as BRASIL portioning (Giordano, R. J. et al. (2001) Nat. Med. 7:1249-1253, incorporated herein by reference). The tube was then snap frozen in liquid nitrogen to isolate the cell pellet. The cell pellets were then resuspended in 200 μl of log phage ER2738 cells and phage allowed to infect 1 hour at room temperature. A small aliquot was taken to determine the number of phage bound by dilution titer.

[2] = target: T3, Tag-xPSM fusion target protein (human, UniProt Q04609 44-750); experiment: phage ELISA; R3-A4 stands only in FIG. 5, where Tag-xPSM was immobilised
T3 construct: extracellular domain; they are put first here only as a guess from the type II topology; Made in Sf-9 cells; also called PSMA fusion protein
From the text: (§2) FIG. 5 depicts the binding of selected phage clones to purified extracellular PSMA. Tag-xPSM was immobilized on microtiter plates and targeted for binding with 10¹⁰ PFU of each individual phage. Bound phages were quantified by ELISA absorbance at 410 nm. R4-C9, R5-XC1, and R3-A4 bound with the following significance compared to insertless phage: p-value=0.005, 0.009, and 0.0001 respectively). Phage clones contained peptide sequences as follows: R5-C6: SEQ ID NO:2; R4-C9: SEQ ID NO:5; R5-XC1: SEQ ID NO:1; R3-A4: SEQ ID NO:95.
(§3) Target proteins were immobilized on 96 well tissue culture plates by incubation for 1-2 hours at room temperature or overnight at four degrees Celsius. Both phage and protein coated plate were blocked for 30 minutes with RPMI 1640+1% Bovine Serum Albumin (BSA) at room temperature. Phage were incubated with target in RPMI 1640+1% BSA for 1 hour at room temperature, wells were washed five times in PBS+0.05% Tween-20, and wells were incubated with 1:5000 HRP/anti-M13 monoclonal antibody (in PBS) for 1 hour. Wells were again washed five times in PBS+0.05% Tween-20, and signal detected by incubation in 1×ABTS Stock Solution (100 mg ABTS in 450 ml of 0.05 M Citric Acid, pH 4.0) and absorbance reading at 410 nm. […] Significance was calculated by two-tailed, two-sample equal variance test.

[3] = target: T3, Tag-xPSM fusion target protein; experiment: phage ELISA, Tag-xPSM immobilised on microtiter plates, 10^10 PFU, absorbance at 410 nm
From the text: as §2, §3

[4] = target: T1, xPSM (extracellular portion of human …); experiment: competition: 380 nM soluble PSMA (xPSM) against LNCaP cells for R5-XC1 phage, 500 nM BSA as control
Experimental: FIG. 7 depicts the specific blocking of LNCaP phage binding by soluble xPSM protein. 10¹⁰ R5-XC1 phage or the round one phage pool were allowed to bind LNCaP cells in the presence of 380 nM PSMA or 500 nM BSA.
as §1

T1 sequence (Q04609 44-750): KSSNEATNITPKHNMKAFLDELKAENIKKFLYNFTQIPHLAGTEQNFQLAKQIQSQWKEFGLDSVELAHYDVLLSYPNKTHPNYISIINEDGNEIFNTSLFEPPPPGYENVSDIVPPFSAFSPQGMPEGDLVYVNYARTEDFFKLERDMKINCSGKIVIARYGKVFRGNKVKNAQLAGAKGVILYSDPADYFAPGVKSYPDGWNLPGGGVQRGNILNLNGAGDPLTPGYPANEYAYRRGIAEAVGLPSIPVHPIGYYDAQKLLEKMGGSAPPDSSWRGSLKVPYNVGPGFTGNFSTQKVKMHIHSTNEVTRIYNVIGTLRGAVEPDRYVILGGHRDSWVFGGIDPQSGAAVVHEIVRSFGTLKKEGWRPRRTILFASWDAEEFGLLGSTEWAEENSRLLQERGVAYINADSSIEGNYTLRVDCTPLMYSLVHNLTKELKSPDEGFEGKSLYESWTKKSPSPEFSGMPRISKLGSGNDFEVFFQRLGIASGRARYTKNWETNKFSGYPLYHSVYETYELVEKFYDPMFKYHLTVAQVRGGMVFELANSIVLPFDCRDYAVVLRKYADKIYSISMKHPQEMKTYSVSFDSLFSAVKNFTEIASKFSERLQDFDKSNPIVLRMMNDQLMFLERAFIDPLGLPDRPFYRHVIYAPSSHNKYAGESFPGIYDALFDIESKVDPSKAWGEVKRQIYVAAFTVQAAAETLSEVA
T2 sequence (Q04609 whole entry): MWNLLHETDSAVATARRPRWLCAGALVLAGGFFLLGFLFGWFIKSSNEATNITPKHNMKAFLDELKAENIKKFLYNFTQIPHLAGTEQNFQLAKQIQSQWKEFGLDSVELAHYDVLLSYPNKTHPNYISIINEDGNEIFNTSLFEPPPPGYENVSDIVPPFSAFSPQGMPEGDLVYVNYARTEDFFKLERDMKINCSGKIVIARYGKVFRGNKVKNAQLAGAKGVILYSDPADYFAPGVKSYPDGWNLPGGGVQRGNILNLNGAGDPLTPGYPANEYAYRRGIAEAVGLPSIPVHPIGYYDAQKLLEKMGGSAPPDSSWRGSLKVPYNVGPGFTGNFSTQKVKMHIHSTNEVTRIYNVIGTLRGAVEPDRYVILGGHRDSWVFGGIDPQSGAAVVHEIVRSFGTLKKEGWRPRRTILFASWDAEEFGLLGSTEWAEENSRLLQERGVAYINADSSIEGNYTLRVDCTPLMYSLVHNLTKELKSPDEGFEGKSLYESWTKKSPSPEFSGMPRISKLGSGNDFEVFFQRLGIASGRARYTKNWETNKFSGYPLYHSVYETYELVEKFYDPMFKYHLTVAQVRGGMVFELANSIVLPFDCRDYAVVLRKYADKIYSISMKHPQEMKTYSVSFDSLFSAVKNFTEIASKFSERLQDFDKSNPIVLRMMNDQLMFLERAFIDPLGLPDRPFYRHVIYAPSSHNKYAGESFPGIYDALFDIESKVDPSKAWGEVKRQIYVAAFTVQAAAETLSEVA
T3 sequence (Q04609 44-750): as the sequence (Q04609 44-750) above

Binder | binding result [1] | binding result (PSMA on LNCaP cells) | further results
CTITSKRTC (not fully specified (bridges); cysteine pairing not given here; also: displayed on M13 phage pIII coat protein, Disulfide-constrained heptapeptide flanked by cysteines, tested as whole phage; not shown: pIII coat protein of M13 filamentous bacteriophage (New England Biolabs CX7C library); junction between peptide and pIII) [R5-C6 phage (M13 phage displaying CTITSKRTC)] | binds | binds | –
CFPQSSARC (not fully specified (bridges); cysteine pairing not given here; also: displayed on M13 phage pIII coat protein, Disulfide-constrained heptapeptide flanked by cysteines, tested as whole phage; not shown: pIII coat protein of M13 filamentous bacteriophage (New England Biolabs CX7C library); junction between peptide and pIII) [R3-A4 phage (M13 phage displaying CFPQSSARC)] | – | binds | binding result [2]: binds
CQKHHNYLC (not fully specified (bridges); cysteine pairing not given here; also: displayed on M13 phage pIII coat protein, Disulfide-constrained heptapeptide flanked by cysteines, tested as whole phage; not shown: pIII coat protein of M13 filamentous bacteriophage (New England Biolabs CX7C library); junction between peptide and pIII) [R5-XC1 phage (M13 phage displaying CQKHHNYLC)] | – | binds | binding result [3]: binds; binding result [4]: binds
CQVRHSAQC (not fully specified (bridges); cysteine pairing not given here; also: displayed on M13 phage pIII coat protein, Tested as whole phage; not shown: pIII coat protein of M13 filamentous bacteriophage (New England Biolabs CX7C library); junction between peptide and pIII) [SEQ ID NO 106 phage (M13 phage displaying CQVRHSAQC)] | binds | – | –
CPSVNTKQC (not fully specified (bridges); cysteine pairing not given here; also: displayed on M13 phage pIII coat protein, Tested as whole phage; also called R5-C11; not shown: pIII coat protein of M13 filamentous bacteriophage (New England Biolabs CX7C library); junction between peptide and pIII) [SEQ ID NO 9 phage (M13 phage displaying CPSVNTKQC)] | binds | – | –
CLSSNSSLC (not fully specified (bridges); cysteine pairing not given here; also: displayed on M13 phage pIII coat protein, Tested as whole phage; also called R3-C1; not shown: pIII coat protein of M13 filamentous bacteriophage (New England Biolabs CX7C library); junction between peptide and pIII) [SEQ ID NO 28 phage (M13 phage displaying CLSSNSSLC)] | binds | – | –
CTPQSSDRC (not fully specified (bridges); cysteine pairing not given here; also: displayed on M13 phage pIII coat protein, Tested as whole phage; not shown: pIII coat protein of M13 filamentous bacteriophage (New England Biolabs CX7C library); junction between peptide and pIII) [SEQ ID NO 107 phage (M13 phage displaying CTPQSSDRC)] | binds | – | –
